Assay results reported in patent publication US20090162366A1.

Columns and labels:
[1] = biological target: CM12 (influenza A virus); assay: ELISA on peptide, Ab 10 µg/ml
[2] = biological target: CM13 (influenza A virus); assay: ELISA on peptide, Ab 10 µg/ml
[3] = biological target: CM14 (influenza A virus); assay: ELISA on peptide, Ab 10 µg/ml
[4] = biological target: CM15 (influenza A virus); assay: ELISA on peptide, Ab 10 µg/ml
[5] = biological target: CM16 (influenza A virus); assay: ELISA on peptide, Ab 10 µg/ml
[6] = biological target: CM17 (influenza A virus); assay: ELISA on peptide, Ab 10 µg/ml
[7] = biological target: M2 peptide (influenza A virus, A/Hong Kong/1/68 (H3N2)); assay: ELISA on peptide, Ab 10 µg/ml
[8] = biological target: NM11 (influenza A virus); assay: ELISA on peptide, Ab 10 µg/ml
[9] = biological target: NM12 (influenza A virus); assay: ELISA on peptide, Ab 10 µg/ml
[10] = biological target: NM13 (influenza A virus); assay: ELISA on peptide, Ab 10 µg/ml
[11] = biological target: NM14 (influenza A virus); assay: ELISA on peptide, Ab 10 µg/ml
[12] = biological target: NM15 (influenza A virus); assay: ELISA on peptide, Ab 10 µg/ml
[13] = biological target: NM16 (influenza A virus); assay: ELISA on peptide, Ab 10 µg/ml
[14] = biological target: NM17 (influenza A virus); assay: ELISA on peptide, Ab 10 µg/ml
[15] = biological target: M2-BSA conjugate (influenza A virus, A/Hong Kong/1/68 (H3N2)); assay: peptide-BSA ELISA (++ EC50<10^-9M; + 10^-9M<EC50<10^-8M)
[16] = biological target: M2EG peptide conjugated with BSA (influenza A virus, A/New York/687/1995 (H3N2)); assay: as above; details: remark: other sources report otherwise
[17] = biological target: T1, M2GHTGKS peptide conjugated with BSA (influenza A virus, A/chicken/HongKong/SF1/03 (H9N2)); assay: as above; details: remark: other sources report otherwise
[18] = biological target: T2, M2KGENS peptide conjugated with BSA (influenza A virus, A/Turkey/VA/158512/02 (H7N2)); assay: as above; details: remark: other sources report otherwise
[19] = biological target: M2LTGEKS-BSA conjugate (influenza A virus, A/Hong Kong/1074/99 (H9N2)); assay: as above; details: remark: other sources report otherwise
[20] = biological target: T3, M2PHTGS peptide conjugated with BSA (influenza A virus, A/chicken/HongKong/YU427/03 (H9N2)); assay: as above; details: remark: other sources report otherwise
[21] = biological target: M2TES peptide conjugated with BSA (influenza A virus, A/Viet Nam/1203/2004 (H5N1)); assay: as above; details: remark: other sources report otherwise
[22] = biological target: M2TGEK-BSA conjugate (influenza A virus, A/Netherlands/33/03 (H7N7)); assay: as above; details: remark: other sources report otherwise
[23] = biological target: M2GHTGKS (influenza A virus, A/chicken/HongKong/SF1/03 (H9N2)); details: remark: other sources report otherwise
[24] = biological target: M2HTGEKS (influenza A virus, A/chicken/California/1002a/00 (H6N2)); details: remark: other sources report otherwise
[25] = biological target: M2KGENS (influenza A virus, A/Turkey/VA/158512/02 (H7N2)); details: remark: other sources report otherwise
[26] = biological target: M2KTGEKS (influenza A virus, A/Quail/Arkansas/16309-7/94 (H7N3NSA)); details: remark: other sources report otherwise
[27] = biological target: M2LTGS (influenza A virus, A/Hong Kong/156/97 (H5N1)); details: remark: other sources report otherwise
[28] = biological target: M2LTKGS (influenza A virus, A/Hong Kong/542/97 (H5N1)); details: remark: other sources report otherwise
[29] = biological target: M2PHTGS (influenza A virus, A/chicken/HongKong/YU427/03 (H9N2)); details: remark: other sources report otherwise
[30] = biological target: T1, M2GHTGKS peptide conjugated with BSA …; assay: peptide-BSA ELISA; details: remark: other sources report otherwise
[31] = biological target: T4, M2HTGEKS peptide conjugated with BSA (influenza A virus, A/chicken/California/1002a/00 (H6N2)); assay: peptide-BSA ELISA; details: remark: other sources report otherwise
[32] = biological target: T2, M2KGENS peptide conjugated with BSA …; assay: peptide-BSA ELISA; details: remark: other sources report otherwise
[33] = biological target: T5, M2KTGEKS peptide conjugated with BSA (influenza A virus, A/Quail/Arkansas/16309-7/94 (H7N3NSA)); assay: peptide-BSA ELISA; details: remark: other sources report otherwise
[34] = biological target: T6, M2LTGS peptide conjugated with BSA (influenza A virus, A/Hong Kong/156/97 (H5N1)); assay: peptide-BSA ELISA; details: remark: other sources report otherwise
[35] = biological target: T7, M2LTKGS peptide conjugated with BSA (influenza A virus, A/Hong Kong/542/97 (H5N1)); assay: peptide-BSA ELISA; details: remark: other sources report otherwise
[36] = biological target: T3, M2PHTGS peptide conjugated with BSA …; assay: peptide-BSA ELISA; details: remark: other sources report otherwise
[37] = biological target: M12 (influenza A virus); assay: ELISA on peptide, Ab 10 µg/ml
[38] = biological target: T1, M2GHTGKS peptide conjugated with BSA …; assay: peptide-BSA ELISA; legend: EC50 > 10^-8M: -; details: remark: other sources report otherwise
[39] = biological target: T4, M2HTGEKS peptide conjugated with BSA …; assay: peptide-BSA ELISA; legend: EC50 > 10^-8M: -; details: remark: other sources report otherwise
[40] = biological target: T2, M2KGENS peptide conjugated with BSA …; assay: peptide-BSA ELISA; legend: EC50 > 10^-8M: -; details: remark: other sources report otherwise
[41] = biological target: T5, M2KTGEKS peptide conjugated with BSA …; assay: peptide-BSA ELISA; legend: EC50 > 10^-8M: -; details: remark: other sources report otherwise
[42] = biological target: T6, M2LTGS peptide conjugated with BSA …; assay: peptide-BSA ELISA; legend: EC50 > 10^-8M: -; details: remark: other sources report otherwise
[43] = biological target: T7, M2LTKGS peptide conjugated with BSA …; assay: peptide-BSA ELISA; legend: EC50 > 10^-8M: -; details: remark: other sources report otherwise
[44] = biological target: T3, M2PHTGS peptide conjugated with BSA …; assay: peptide-BSA ELISA; legend: EC50 > 10^-8M: -; details: remark: other sources report otherwise
[45] = biological target: M2DLTGS peptide conjugated with BSA (influenza A virus, A/Hong Kong/485/97 (H5N1)); assay: peptide-BSA ELISA (++ EC50<10^-9M; + 10^-9M<EC50<10^-8M); details: remark: other sources report otherwise
[46] = biological target: M2SG peptide conjugated with BSA (influenza A virus, A/swine/Tennessee/25/77 (H1N1)); assay: as above; details: remark: other sources report otherwise

B1: L66 (antibody, V domains shown)
VH: EVQLVESGGGVVRPGGSLRLSCAASGFTFDDYGMSWVRQAPGKGLEWVSGINWNGGSTGYADSVKGRFTISRDNAKNSLYLQMNSLRAEDTALYYCARDRVTMVRGVIMDYYGMDVWGQGTTVTVSS
VL: QTVVTQEPSLTVSPRGTVTLTCSSSTGAVTSGYYPGWFQLKPGQAPMSLIYSARKKHSWTPARFSGSLLGGKAALTLSGVQPEDEAEYYCLLYYGGAYVFGTGTKVTVLG
How did the ELISA(OD450) [1] turn out when B1 was run?
Its ELISA(OD450) is 0.08 OD450.

What about the ELISA(OD450) [2] of the same binder?
Its ELISA(OD450) is 0.08 OD450.

And the ELISA(OD450) [3]?
Its ELISA(OD450) is 0.08 OD450.

What about the ELISA(OD450) [4] of the same binder?
The ELISA(OD450) was 0.09 OD450.

What about the ELISA(OD450) [5] of the same binder?
The ELISA(OD450) was 0.09 OD450.

What about the ELISA(OD450) [6] of the same binder?
The ELISA(OD450) was 0.12 OD450.

And the ELISA(OD450) [7]?
The ELISA(OD450) was 0.51 OD450.

What about the ELISA(OD450) [8] of the same binder?
Its ELISA(OD450) is 0.09 OD450.

What about the ELISA(OD450) [9] of the same binder?
The ELISA(OD450) was 0.12 OD450.

What about the ELISA(OD450) [10] of the same binder?
Its ELISA(OD450) is 0.13 OD450.

What about the ELISA(OD450) [11] of the same binder?
The ELISA(OD450) was 0.22 OD450.

What about the ELISA(OD450) [12] of the same binder?
Its ELISA(OD450) is 0.2 OD450.

And the ELISA(OD450) [13]?
The ELISA(OD450) was 1.04 OD450.

What about the ELISA(OD450) [14] of the same binder?
Its ELISA(OD450) is 0.99 OD450.

What about the EC50 [15] of the same binder?
The EC50 was under 1 nM.

What about the EC50 [16] of the same binder?
The EC50 was 1 to 10 nM.

What about the EC50 [17] of the same binder?
Its EC50 is under 1 nM.

What about the EC50 [18] of the same binder?
The EC50 was under 1 nM.

What about the EC50 [19] of the same binder?
Its EC50 is under 1 nM.

What about the EC50 [20] of the same binder?
The EC50 was under 1 nM.

What about the EC50 [21] of the same binder?
Its EC50 is under 1 nM.

And the EC50 [22]?
The EC50 was under 1 nM.

B2: C40G1 (antibody, V domains shown)
VH: QLQLQESGPGLVKPSETLSLTCTVSGGSISSSFYYCGWIRQPPGKGLEWIGSIYYRGSTYYNPSLKSRVTISVDTSKNQFSLKLSSVTAADTAVYYCARRVTMVRGVKGDYFDYWGQGTLVTVSS
VL: DIQMTQSPSSLSASVGDRVTITCRASQGISSWLAWYQQKPEKVPKSLIYAASSLQSGVPSRFSGSGSGTDFTLTISSLQPEDFATYYCQQYNYYPLTFGGGTKVEIKR
For B2, which % of O.D. on M2 (SEQ ID NO:1) [23] is on record?
The % of O.D. on M2 (SEQ ID NO:1) was under 10%.

What about the % of O.D. on M2 (SEQ ID NO:1) [24] of the same binder?
The % of O.D. on M2 (SEQ ID NO:1) was under 10%.

What about the % of O.D. on M2 (SEQ ID NO:1) [25] of the same binder?
Its % of O.D. on M2 (SEQ ID NO:1) is under 10%.

What about the % of O.D. on M2 (SEQ ID NO:1) [26] of the same binder?
The % of O.D. on M2 (SEQ ID NO:1) was under 10%.

What about the % of O.D. on M2 (SEQ ID NO:1) [27] of the same binder?
The % of O.D. on M2 (SEQ ID NO:1) was under 10%.

What about the % of O.D. on M2 (SEQ ID NO:1) [28] of the same binder?
Its % of O.D. on M2 (SEQ ID NO:1) is under 10%.

And the % of O.D. on M2 (SEQ ID NO:1) [29]?
The % of O.D. on M2 (SEQ ID NO:1) was under 10%.

And the EC50 [30]?
Its EC50 is over 10 nM.

What about the EC50 [31] of the same binder?
The EC50 was over 10 nM.

What about the EC50 [32] of the same binder?
Its EC50 is over 10 nM.

What about the EC50 [33] of the same binder?
Its EC50 is over 10 nM.

What about the EC50 [34] of the same binder?
Its EC50 is over 10 nM.

What about the EC50 [35] of the same binder?
The EC50 was over 10 nM.

And the EC50 [36]?
The EC50 was over 10 nM.

And the ELISA(OD450) [1]?
Its ELISA(OD450) is 0.1 OD450.

And the ELISA(OD450) [2]?
The ELISA(OD450) was 0.11 OD450.

And the ELISA(OD450) [3]?
Its ELISA(OD450) is 0.1 OD450.

And the ELISA(OD450) [4]?
The ELISA(OD450) was 0.11 OD450.

And the ELISA(OD450) [5]?
The ELISA(OD450) was 0.76 OD450.

And the ELISA(OD450) [6]?
Its ELISA(OD450) is 2.78 OD450.

What about the ELISA(OD450) [37] of the same binder?
Its ELISA(OD450) is 2.71 OD450.

And the ELISA(OD450) [8]?
Its ELISA(OD450) is 0.31 OD450.

What about the ELISA(OD450) [9] of the same binder?
The ELISA(OD450) was 0.12 OD450.

What about the ELISA(OD450) [10] of the same binder?
Its ELISA(OD450) is 2.41 OD450.

What about the ELISA(OD450) [11] of the same binder?
Its ELISA(OD450) is 2.49 OD450.

What about the EC50 [38] of the same binder?
Its EC50 is over 10 nM.

And the EC50 [39]?
The EC50 was over 10 nM.

What about the EC50 [40] of the same binder?
The EC50 was over 10 nM.

And the EC50 [41]?
Its EC50 is over 10 nM.

What about the EC50 [42] of the same binder?
Its EC50 is over 10 nM.

What about the EC50 [43] of the same binder?
Its EC50 is over 10 nM.

And the EC50 [44]?
The EC50 was over 10 nM.

And the EC50 [45]?
Its EC50 is 1 to 10 nM.

What about the EC50 [16] of the same binder?
Its EC50 is under 1 nM.

And the EC50 [46]?
The EC50 was under 1 nM.

What about the EC50 [21] of the same binder?
Its EC50 is under 1 nM.
